Results reported in patent US12329841B2, “Odorant-binding protein compositions, methods and uses thereof” (Universidade do Minho, priority 2020, dated 2025).

Legend:
[1] = cited from earlier work
[2] = 1-AMA fluorescence binding assay in buffer; details: 50 mM Tris-HCl pH 7.5 buffer, 37° C., 1 μM protein, 1-AMA ligand, Ka from Kd=1/Ka, mean of 2 independent experiments
Protocol: (§1) In an embodiment, the pure odorant-binding protein was lyophilized and used in further procedures. To determine the affinity of the odorant-binding protein to odour molecules, 1-aminoanthracene (1-AMA) was used as an odour model molecule. Increased concentrations of fluorescent ligand model 1-aminoanthracene (1-AMA) were added to 1 μM of protein, and the formation of ligand/protein complex was quantified after 1 h at 37° C. by fluorescence emission at 481 nm (excitation at 295 nm).^30 Dissociation constant (Kd) was determined from a plot of fluorescence intensity versus concentration of ligand, obtained with a standard non-linear regression method, described in Malpeli et al. (1998).^31 The affinity behaviour of protein in presence of sweat solution was performed through a competitive fluorescence assay. Here, 1 μM of protein was mixed with 2 μM of 1-AMA and incubated at 37° C. for 1 h. After this period, increased volumes of sweat solution were added to the complex and incubated at same conditions.
(§2) In a further embodiment, fluorescence emission at 481 nm (excitation at 295 nm) was recorded and the dissociation constant (Kd) calculated. The association constant (Ka) was calculated by formula Kd=1/Ka.

[3] = Competitive fluorescence assay with sweat solution added to 1-AMA/protein complex; format: binding; details: 37° C.; for Ka in sweat (affinity/association constant): sweat solution (AATCC 15-2009, pH 4.0-8.5), 1 μM protein + 2 μM 1-AMA, mean of 2 independent experiments
Protocol: as §1
In an embodiment, the sweat solution was prepared as indicated in AATCC method 15-2009 “Colorfastness to Perspiration”. The pH of the prepared solution varied between 4.0 and 8.5. In accordance with its composition, the sweat solution is also regarded as electrolyte solution.
as §2

[4] = Fragrance release quantified by headspace GC-MS after adding sweat solution; details: for Odorific molecules released in response to human perspiration, compared with other fusion proteins based on porcine OBP: sweat pH 4.0-8.5
Protocol: In an embodiment, the release of fragrance was quantified by gas chromatography-mass spectrometry (GC-MS). Increased concentrations of fragrance were used in different vials and the fragrance in headspace quantified performing the calibration curve (area of peak vs fragrance concentration). The fragrance was incubated with the odorant-binding protein at 37° C. Sweat solution was added and the fragrance release determined after several periods of time (0.5-24 h) of perspiration exposition.

[5] = particularly in the presence of a ligand; cited from earlier work
[6] = listed as Native porcine OBP (OBP-I)

B1: OBP::GQ20::CBM: Recombinant pig OBP fused with spacer GQ20 and carbohydrate-binding module; comparative data, SEQ ID NO. 22 (protein)
chain: QEPQPEQDPFELSGKWITSYIGSSDLEKIGENAPFQVFMRSIEFDDKESKVYLNFFSKENGICEEFSLIGTKQEGNTYDVNYAGNNKFVVSYASETALIISNINVDEEGDKTIMTGLLGKGTDIEDQDLEKFKEVTRENGIPEENIVNIIERDDCPAGQGQGQGQGQGQGQGQGQGQGQGQGQGQGQGQGQGQGQGQASPIGEGTFDDGPEGWVAYGTDGPLDTSTGALCVAVPAGSAQYGVGVVLNGVAIEEGTTYTLRYTATASTDVTVRALVGQNGAPYGTVLDTSPALTSEPRQVTETFTASATYPATPAADDPEGQIAFQLGGFSADAWTLCLDDVALDSEVEL
modifications: OBP::GQ20::CBM (recombinant protein)
For B1, the “Release of fragrance in presence of sweat, value reported in state of art (ref. 25)” value [1] is listed as 1.3 ×, the Ka in buffer (affinity/association constant) [2] is listed as 4.17 µM⁻¹ and the “Reduction of affinity on addition of sweat solution (Ka buffer vs Ka sweat)” value (from here on “Reduction of affinity”) [3] is listed as 1.3 ×. For the same molecule, the Ka in sweat (affinity/association constant) [3] was 3.16 µM⁻¹.

B2: OBP::GQ20::KP: Recombinant pig OBP fused with linker GQ 20× and KP peptide, SEQ ID NO. 21 (protein)
chain: QEPQPEQDPFELSGKWITSYIGSSDLEKIGENAPFQVFMRSIEFDDKESKVYLNFFSKENGICEEFSLIGTKQEGNTYDVNYAGNNKFVVSYASETALIISNINVDEEGDKTIMTGLLGKGTDIEDQDLEKFKEVTRENGIPEENIVNIIERDDCPAGQGQGQGQGQGQGQGQGQGQGQGQGQGQGQGQGQGQGQGQGGVCGPSPPCITT
modifications: OBP::GQ20::KP (recombinant protein)
In the case of B2, the Ka in buffer (affinity/association constant) [2] is reported as 4 µM⁻¹, the “Reduction of affinity” value [3] is reported as 6.8 × and the Ka in sweat (affinity/association constant) [3] is reported as 0.59 µM⁻¹. For the same molecule, the “Odorific molecules released in response to human perspiration, compared with other fusion proteins based on porcine OBP” value [4] was > 6.8 × and the “More fragrance release in presence of sweat versus presence of buffer” value ([4]; sweat versus buffer) was 6.8 ×.

B3: OBP-I: Native porcine (pig) odorant-binding protein, PDB ID 1DZK, SEQ ID NO. 1 (protein, listed as Sus scrofa)
chain: QEPQPEQDPFELSGKWITSYIGSSDLEKIGENAPFQVFMRSIEFDDKESKVYLNFFSKENGICEEFSLIGTKQEGNTYDVNYAGNNKFVVSYASETALIISNINVDEEGDKTIMTGLLGKGTDIEDQDLEKFKEVTRENGIPEENIVNIIERDDCPA
modifications: Pig OBP (PDB ID 1DZK)
B3 gave a Ka in buffer (affinity/association constant) [2] of 4 ± 0.03 µM⁻¹, a Ka in buffer (affinity/association constant) ([2]; listed as Native OBP-I) of 4 ± 0.03 µM⁻¹ and a Ka in buffer (affinity/association constant) [2, 6] of 4 ± 0.03 µM⁻¹. For the same molecule, the “Reduction of affinity” value [3] was 20 ×, the Ka in sweat (affinity/association constant) [3] was 0.2 µM⁻¹ and the Ka in sweat (affinity/association constant) ([3]; listed as Native OBP-I) was 0.2 ± 0.02 µM⁻¹. For the same molecule, the Ka in sweat (affinity/association constant) [3, 6] was 0.2 ± 0.02 µM⁻¹, the “Structure stable to thermal denaturation up to (FT-IR)” value [5] was “up to 80 °C” and the “Odorific molecules released in response to human perspiration, compared with other fusion proteins based on porcine OBP” value [4] was “more than 20 ×”.
